Measurements: PMC3423576 (Journal of molecular biology, 2012)

Target: the molecule itself
Assay: crystal structure

B1: CusB periplasmic membrane fusion protein (natural protein, E. coli, UniProt P77239 29-407, looked up)
chain: EPPAEKTSTAERKILFWYDPMYPNTRFDKPGKSPFMDMDLVPKYADEESSASGVRIDPTQTQNLGVKTATVTRGPLTFAQSFPANVSYNEYQYAIVQARAAGFIDKVYPLTVGDKVQKGTPLLDLTIPDWVEAQSEYLLLRETGGTATQTEGILERLRLAGMPEADIRRLIATQKIQTRFTLKAPIDGVITAFDLRAGMNIAKDNVVAKIQGMDPVWVTAAIPESIAWLVKDASQFTLTVPARPDKTLTIRKWTLLPGVDAATRTLQLRLEVDNADEALKPGMNAWLQLNTASEPMLLIPSQALIDTGSEQRVITVDADGRFVPKRVAVFQASQGVTALRSGLAEGEKVVSSGLFLIDSEANISGALERMRSESATHAH
stoichiometry N: 6
